Measured values as given in IntAct's records for PubMed 16983070.

B1: SH2 domain-containing protein 1A (Homo sapiens), O60880-1 (parent)
chain: MDAVAVYHGKISRETGEKLLLATGLDGSYLLRDSESVPGVYCLCVLYHGYIYTYRVSQTETGSWSAETAPGVHKRYFRKIKNLISAFQKPDQGIVIPLQYPVEKKSSARSTQGTTGIREDPDVCLKAP
B2: Rho guanine nucleotide exchange factor 7 (Homo sapiens), Q14155 (parent)
chain: MNSAEQTVTWLITLGVLESPKKTISDPEGFLQASLKDGVVLCRLLERLLPGTIEKVYPEPRSESECLSNIREFLRGCGASLRLELLFPPSQPPQHLVTTILLSASTFDANDLYQGQNFNKVLSSLVTLNKVTADIGLGSDSVCARPSSHRIKSFDSLGSQSLHTRTSKLFQGQYRSLDMTDNSNNQLVVRAKFNFQQTNEDELSFSKGDVIHVTRVEEGGWWEGTLNGRTGWFPSNYVREVKASEKPVSPKSGTLKSPPKGFDTTAINKSYYNVVLQNILETENEYSKELQTVLSTYLRPLQTSEKLSSANISYLMGNLEEICSFQQMLVQSLEECTKLPEAQQRVGGCFLNLMPQMKTLYLTYCANHPSAVNVLTEHSEELGEFMETKGASSPGILVLTTGLSKPFMRLDKYPTLLKELERHMEDYHTDRQDIQKSMAAFKNLSAQCQEVRKRKELELQILTEAIRNWEGDDIKTLGNVTYMSQVLIQCAGSEEKNERYLLLFPNVLLMLSASPRMSGFIYQGKLPTTGMTITKLEDSENHRNAFEISGSMIERILVSCNNQQDLQEWVEHLQKQTKVTSVGNPTIKPHSVPSHTLPSHPVTPSSKHADSKPAPLTPAYHTLPHPSHHGTPHTTINWGPLEPPKTPKPWSLSCLRPAPPLRPSAALCYKEDLSKSPKTMKKLLPKRKPERKPSDEEFASRKSTAALEEDAQILKVIEAYCTSAKTRQTLNSTWQGTDLMHNHVLADDDQPSLDSLGRRSSLSRLEPSDLSEDSDYDSIWTAHSYRMGSTSRKSCCSYISHQN
partner: B1 chain

Variants of: B1
Conditions: with arhg7_human ARHGEF7, Q14155

effect of a mutation on the interaction | Variant
disrupting interaction strength | R78A

Variants of: B2
Conditions: with SH2D1A

effect of a mutation on the interaction | Variant
disrupting interaction strength | W221P;W222G
